# Assay results taken from US20200306367A1 (University of Washington, published 2020).
# T1: human CD180 (human, UniProt Q99467 24-661)
# T1 construct: whole, on cells; Native CD180 on primary human B cells; also called RP105; Bgp95
# T1 sequence: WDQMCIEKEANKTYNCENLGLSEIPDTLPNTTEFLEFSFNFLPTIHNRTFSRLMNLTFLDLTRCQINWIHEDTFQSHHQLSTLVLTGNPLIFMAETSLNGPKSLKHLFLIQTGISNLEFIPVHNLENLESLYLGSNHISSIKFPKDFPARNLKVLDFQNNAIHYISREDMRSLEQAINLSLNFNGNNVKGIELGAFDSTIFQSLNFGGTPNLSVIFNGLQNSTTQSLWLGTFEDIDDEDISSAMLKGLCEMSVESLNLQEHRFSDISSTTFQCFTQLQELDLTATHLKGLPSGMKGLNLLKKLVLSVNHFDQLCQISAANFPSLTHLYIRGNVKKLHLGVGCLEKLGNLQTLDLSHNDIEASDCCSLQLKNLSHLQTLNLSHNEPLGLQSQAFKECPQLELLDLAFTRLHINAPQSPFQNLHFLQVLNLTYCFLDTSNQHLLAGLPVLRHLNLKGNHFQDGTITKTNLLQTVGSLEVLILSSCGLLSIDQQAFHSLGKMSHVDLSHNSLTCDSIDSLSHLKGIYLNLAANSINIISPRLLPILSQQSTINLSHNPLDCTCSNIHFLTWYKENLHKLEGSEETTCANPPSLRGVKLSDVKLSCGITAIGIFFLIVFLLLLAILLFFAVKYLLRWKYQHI
# B1: G28-8 anti-human CD180 monoclonal antibody (antibody, V domains shown)
# VH: EVQLQQSGPELVKPGASMKISCKASGYSFTGYTMNWVKQSHGKTLEWIGLINPYNGVTSYNQKFKDKATLTVDKSSSTAYMELLSLTSEDSAIYYCARDYNYDYFDYWGQGTTLTVSS
# VL: DIQMTQSPASLSASVGETVTITCRASEKIYSYLAWYQQKQGKSPQLLVYNAKTLAEGVPSRFSVSGSGTQFSLRINSLQPEDFGTYYCQHHFGSPRTFGGGTKLEIK
# notes: Commercial parent monoclonal antibody, a whole IgG; also called G28-8 mAb; parent G28-8 antibody
# B2: G28-8LH-HBcAgY132A-His (scFv)
# chain: DIQMTQSPASLSASVGETVTITCRASEKIYSYLAWYQQKQGKSPQLLVYNAKTLAEGVPSRFSVSGSGTQFSLRINSLQPEDFGTYYCQHHFGSPRTFGGGTKLEIKDLGGGGSGGGGSGGGGSGGGGSTGEVQLQQSGPELVKPGASMKISCKASGYSFTGYTMNWVKQSHGKTLEWIGLINPYNGVTSYNQKFKDKATLTVDKSSSTAYMELLSLTSEDSAIYYCARDYNYDYFDYWGQGTTLTVSSGGGGSGGGGSGGGGSGGGGSMDIDPYKEFGASVELLSFLPSDFFPSIRDLLDTASALYREALESPEHCSPHHTALRQAILCWGELMNLATWVGSNLEDPASRELVVSYVNVNMGLKIRQLLWFHISCLTFGRETVLEYLVSFGVWIRTPPAARPPNAPILSTLPETTVVHHHHHH
# notes: Anti-human CD180 scFv (VL-VH) fused to HBcAg(1-149) Y132A and a 6xHis tag, made in CHO cells and purified on nickel resin; the tested protein carried it, since it was detected with anti-6xHis; also called aCD180-HBVAg; HBcAg-CD180
# Key:
# human CD180 [1] = biological target: T1, human CD180; assay: flow cytometry competition on human B cells; 2.5 ug unlabelled G28-8 first, then 10 ug G28-8-PE
# human CD180 [2] = biological target: T1, human CD180; assay: flow cytometry on human B cells (figure legend)
Binder,binding result (human CD180 [1]),binding result (human CD180 [2])
B1,binds,
B2,,binds
